US20220002363A1, “COMPOSITIONS AND METHODS FOR TREATING PULMONARY DISEASE” (United States Government As Represented By The Department …, priority 2020, published 2022)
Changes are numbered by the printed parent chain. Read-outs that look alike come from different tables or passages of the source.

Assays:
[1] = target: T1, WT-sFasL (Homo sapiens, UniProt P48023); assay: Attenuation of WT-sFasL-induced caspase 3/7 activity in primary human small airway epithelial cells (SAEC); assay type: cell-based; conditions: for inhibitory effect on ability of WT-sFasL to induce caspase 3-7 activity: at higher molar ratios than in Jurkat
T1 construct: made in house
T1 sequence (P48023 103-281): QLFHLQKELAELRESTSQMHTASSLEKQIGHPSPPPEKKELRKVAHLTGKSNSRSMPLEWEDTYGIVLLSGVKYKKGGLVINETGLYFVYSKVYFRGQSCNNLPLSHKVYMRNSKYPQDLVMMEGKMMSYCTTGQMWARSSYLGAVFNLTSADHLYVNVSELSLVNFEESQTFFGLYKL
Procedure: (§1) FIGS. 2A-D show the mut-sFasL has inhibitory properties. Highly Fas-sensitive Jurkat cells (FIG. 2A), primary human lung small airway epithelial cells (SAEC, FIG. 2B) or murine lung epithelial cells (LA4, FIG. 2D) were incubated with serial dilutions of mutated FasL, (mut sFasL). […] As a confirmatory test, the experiment was repeated using SAEC and an annexin-V translocation assay (FIG. 2C). WT=wild type (no mutant). […] Each dot represents individual data; lines represent means±SD. *=P<0.05; **=P<0.01, ***P<0.001 when compared to WT. One way ANOVA with SIdak's post hoc analysis.
Small airway epithelial cells (SAEC) are primary human cells isolated from the 1-mm bronchiole area of normal human lung tissue, and were purchased from Lonza (Walkersville, Md., catalogue number CC-2547, lot number 0000669507). Cells used came from a single donor and confirmed mycoplasma-free by the vendor. Cells were grown at 37° C., 5% CO2 in small airway epithelial basal medium (SAGM, Lonza, Cat #CC-3119 CC-3119) supplemented with SAGM SingleQuots (Lonza, catalogue number CC-4124), and used between passages 2 and 4.
(§2) Measurements of apoptotic cascade activation. Apoptotic cascade activation was assessed by determining caspase 3/7 activity and Annexin V externalization. Caspase-3/7 activity was measured using a commercial substrate (Caspase-Glo 3/7 Assay, Promega, Madison, Wis., Cat #G8090) following manufacturer's instructions. Annexin V was measured with a luminescent commercial assay that allows for measurement of annexin V externalization in adherent cells (RealTime-Glo Annexin V assay, Promega, Madison, Wis., Cat #JA1011). Luminescence was measured with a Synergy H4 Microplate Reader (BioTek, Winooski, Vt.).
The mut-sFasL attenuates the activity of WT-sFasL. Then, the caspase 3/7 activity of Jurkat cells incubated with different molar ratios of WT and mut-sFasL was investigated. […] The molar mixtures on primary human small airway epithelial cells (SAEC) were tested. These cells are commercially isolated from the distal airways of human lungs. […]

[2] = target: T2, recombinant human soluble Fas (Homo sapiens, UniProt P25445); assay: Fas-FasL binding assay on wells coated with recombinant human soluble Fas; conditions: recombinant human Fas 5 μg/mL, detection with polyclonal anti-FasL antibodies
T2 construct: recombinant human soluble Fas receptors (PeproTech, Rocky Hill, N.J.); purchased PeproTech
T2 sequence (P25445 26-173 limits assumed): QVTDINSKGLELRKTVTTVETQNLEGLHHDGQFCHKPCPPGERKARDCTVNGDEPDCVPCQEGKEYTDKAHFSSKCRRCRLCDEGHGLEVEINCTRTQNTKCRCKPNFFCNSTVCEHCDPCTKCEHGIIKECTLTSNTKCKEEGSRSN
Procedure: The mixtures were incubated for 2 hours in 96-well plates pre-coated with recombinant hsFas (250 ng/ml). After washing unbound material, biotin was detected using HRP conjugated Streptavidin. […] The sFasL bound to Fas was detected using polyclonal anti-human FasL antibodies. […] Different molar ratios of the Fas-activating antibody CH-11 and mut-sFasL were added, and caspase 3/7 activity measured after 5 hours. […] Data represent the results from three separate experiments, each done in duplicate, and were analyzed by 2-way ANOVA with Sidak's post hoc analysis. […] Each dot represents individual data; lines represent means±SD. *=P<0.05; **=P<0.01, ***P<0.001.
Antibodies and Reagents. […] FLAG tagged mut-sFasL was detected using HRP anti-FLAG monoclonal antibody (Sigma-Aldrich, Cat #A85920). […]
WT-sFasL inhibition occurs prior to receptor binding. […] Recombinant human Fas at 250 ng/mL were coated and the binding of a fixed concentration of biotinylated WT-sFasL (70 ng/mL) were measured in the presence of serial 3-fold dilutions of either WT-sFasL or mut-sFasL. […] Serial dilutions of either WT-sFasL or mut-sFasL were incubated in wells coated with recombinant human Fas, 5 μg/mL, and after washing, detected sFasL bound to Fas using polyclonal anti-FasL antibodies. […]

[3] = target: T1, WT-sFasL; assay: Attenuation of WT-sFasL-induced caspase 3/7 activity in murine lung epithelial cells (LA4); assay type: cell-based, mouse
Procedure: as §1
Mouse lung epithelial LA-4 cells were obtained from ATCC (catalogue number CCL-196, lot number 3404534). This cell line is derived from a A/He mouse lung adenoma (Stoner G, et al. Cancer Res. 1975; 35(8):2177-85). […]
as §2, with “Vt.). […]” for “Vt.).”

inhibitory effect on ability of WT-sFasL to induce caspase 3-7 activity [1]: inhibitory effect | binding curve to immobilized Fas relative to WT-sFasL ([2]; listed as mut sFasL): shifted to the left
B1: mut-sFasL: mutant sFasL molecule in which 8 charged amino acids in the 26 amino acid stalk region were changed to alanine (protein)
chain: T1 sequence (P48023 103-281) with H4A, K7A, E8A, E11A, R13A, E14A, H20A, E26A
caspase 3/7 activity ([1]; WT:mut sFasL molar ratios of 1:27 and 1:81): significantly reduced caspase 3/7 activity | inhibitory effect on ability of WT-sFasL to induce caspase 3-7 activity ([1]; listed as 8-mutant protein): an inhibitory effect of the 8-mutant protein was detected | binding curve to immobilized Fas relative to WT-sFasL [2]: shifted to the right, indicating decreased binding ability for Fas | inhibition of WT-sFasL-induced caspase 3-7 activity [3]: inhibited the ability of WT-sFasL to induce caspase 3-7 activity | inhibition of WT-sFasL-induced caspase 3-7 activity ([3]; listed as 8-mutant protein): an inhibitory effect of the 8-mutant protein was detected
